The values below come from US20210032312A1 (Janssen / Centocor, published 2021).

First the molecules themselves.
B1: CD8S389 (designed binder)
chain: LPAPKNLVVSRVTEDSARLSWTAPDAAFDSFGILYYEPVDSGEAITLPVPGSERSYDLTGLKPGTEYFVVITGVKGGAPSTPLGTIFTT
notes: W68F mutant of P282ER9P1360_C8; the entry holds the mutation
B2: CD8S405 (designed binder)
chain: LPAPKNLVVSRVTEDSARLSWTAPDAAFDSFGILYYEPVDSGEAITLTVPGSERSYDLTGLKPGTEYWVVITGVKGGAPSTPLGTIFTT
notes: P48T mutant of P282ER9P1360_C8; the entry holds the mutation
B3: CD8S390 (designed binder)
chain: LPAPKNLVVSRVTEDSARLSWTAPDAAFDSFGILYYEPVDSGEAITLPVPGSERSYDLTGLKPGTEYYVVITGVKGGAPSTPLGTIFTT
notes: W68Y mutant of P282ER9P1360_C8; the entry holds the mutation
B4: CD8S391 (designed binder)
chain: LPAPKNLVVSRVTEDSARLSWTAPDAAFDSFGILYYEPVDSGEAITLPVPGSERSYDLTGLKPGTEYHVVITGVKGGAPSTPLGTIFTT
notes: W68H mutant of P282ER9P1360_C8; the entry holds the mutation
B5: CD8S378 (designed binder)
chain: LPAPKNLVVSRVTEDSARLSWTAPDAAFDSFAITYIEKEHIEEGEAIVLTVPGSERSYDLTGLKPGTEYWVPIWGVKGGANSWPLSAIFTT
notes: D43E mutant of P282DR9P1359_G7; the entry holds the mutation
B6: CD8S379 (designed binder)
chain: LPAPKNLVVSRVTEDSARLSWTAPDAAFDSFAITYIEKEHIESGEAIVLTVPGSERSYDLTGLKPGTEYWVPIWGVKGGANSWPLSAIFTT
notes: D43S mutant of P282DR9P1359_G7; the entry holds the mutation
B7: CD8S381 (designed binder)
chain: LPAPKNLVVSRVTEDSARLSWTAPDAAFDSFAITYIEKEHIEDGEAIVLTVPGSERSYDLTGLKPGTEYFVPIWGVKGGANSWPLSAIFTT
notes: W70F mutant of P282DR9P1359_G7; the entry holds the mutation
B8: CD8S380 (designed binder)
chain: LPAPKNLVVSRVTEDSARLSWTAPDAAFDSFAITYIEKEHIEDGEAIVLTVPGSERSYDLTGLKPGTEYYVPIWGVKGGANSWPLSAIFTT
notes: W70Y mutant of P282DR9P1359_G7; the entry holds the mutation
B9: CD8S382 (designed binder)
chain: LPAPKNLVVSRVTEDSARLSWTAPDAAFDSFAITYIEKEHIEDGEAIVLTVPGSERSYDLTGLKPGTEYSVPIWGVKGGANSWPLSAIFTT
notes: W70S mutant of P282DR9P1359_G7; the entry holds the mutation
B10: CD8S387 (designed binder)
chain: LPAPKNLVVSRVTEDSARLSWTAPDAAFDSFAITYIEKEHIEDGEAIVLTVPGSERSYDLTGLKPGTEYWVPIWGVKGGANSEPLSAIFTT
notes: W83E mutant of P282DR9P1359_G7; the entry holds the mutation
B11: CD8S383 (designed binder)
chain: LPAPKNLVVSRVTEDSARLSWTAPDAAFDSFAITYIEKEHIEDGEAIVLTVPGSERSYDLTGLKPGTEYWVPIYGVKGGANSWPLSAIFTT
notes: W74Y mutant of P282DR9P1359_G7; the entry holds the mutation
B12: CD8S388 (designed binder)
chain: LPAPKNLVVSRVTEDSARLSWTAPDAAFDSFAITYIEKEHIEDGEAIVLTVPGSERSYDLTGLKPGTEYWVPIWGVKGGAQSWPLSAIFTT
notes: N81Q mutant of P282DR9P1359_G7; the entry holds the mutation
B13: CD8S371 (designed binder)
chain: LPAPKNLVVSRVTEDSARLSWTAPDAAFDSFQIAYPEYPPPGEAIVLTVPGSERSYDLTGLKPGTEYFVIIQGVKGGVESWPLSAIFTT
notes: Printed as W48Y mutant of P282DR9P1359_F5; the entry holds the mutation
B14: CD8S403 (designed binder)
chain: LPAPKNLVVSRVTEDSARLSWTAPDAAFDSFAIAYAEWPPQGEAIVLTVPGSERSYDLTGLKPGTEYFVVIYGVKGGSYSAPLSAIFTT
notes: P36A mutant of P282DR9P1359_F7; the entry holds the mutation
B15: CD8S392 (designed binder)
chain: LPAPKNLVVSRVTEDSARLSWTAPDAAFDSFAIAYPEYPPQGEAIVLTVPGSERSYDLTGLKPGTEYFVVIYGVKGGSYSAPLSAIFTT
notes: W38Y mutant of P282DR9P1359_F7; the entry holds the mutation
B16: CD8S374 (designed binder)
chain: LPAPKNLVVSRVTEDSARLSWTAPDAAFDSFQIAYPEWPPPGEAIVLTVPGSERSYDLTGLKPGTEYFVIIQGVKGGVESYPLSAIFTT
notes: W81Y mutant of P282DR9P1359_F5; the entry holds the mutation
B17: CD8S372 (designed binder)
chain: LPAPKNLVVSRVTEDSARLSWTAPDAAFDSFQIAYPELPPPGEAIVLTVPGSERSYDLTGLKPGTEYFVIIQGVKGGVESWPLSAIFTT
notes: Printed as W48L mutant of P282DR9P1359_F5; the entry holds the mutation
B18: CD8S394 (designed binder)
chain: LPAPKNLVVSRVTEDSARLSWTAPDAAFDSFAIAYPEIPPQGEAIVLTVPGSERSYDLTGLKPGTEYFVVIYGVKGGSYSAPLSAIFTT
notes: W38I mutant of P282DR9P1359_F7; the entry holds the mutation
B19: CD8S375 (designed binder)
chain: LPAPKNLVVSRVTEDSARLSWTAPDAAFDSFQIAYPEWPPPGEAIVLTVPGSERSYDLTGLKPGTEYFVIIQGVKGGVESLPLSAIFTT
notes: W81L mutant of P282DR9P1359_F5; the entry holds the mutation
B20: CD8S393 (designed binder)
chain: LPAPKNLVVSRVTEDSARLSWTAPDAAFDSFAIAYPELPPQGEAIVLTVPGSERSYDLTGLKPGTEYFVVIYGVKGGSYSAPLSAIFTT
notes: W38L mutant of P282DR9P1359_F7; the entry holds the mutation
B21: CD8S373 (designed binder)
chain: LPAPKNLVVSRVTEDSARLSWTAPDAAFDSFQIAYPEIPPPGEAIVLTVPGSERSYDLTGLKPGTEYFVIIQGVKGGVESWPLSAIFTT
notes: Printed as W48I mutant of P282DR9P1359_F5; the entry holds the mutation
B22: CD8S377 (designed binder)
chain: LPAPKNLVVSRVTEDSARLSWTAPDAAFDSFQIAYPEWPPPGEAIVLTVPGSERSYDLTGLKPGTEYFVIIQGVKGGVESEPLSAIFTT
notes: W81E mutant of P282DR9P1359_F5; the entry holds the mutation
B23: CD8S376 (designed binder)
chain: LPAPKNLVVSRVTEDSARLSWTAPDAAFDSFQIAYPEWPPPGEAIVLTVPGSERSYDLTGLKPGTEYFVIIQGVKGGVESSPLSAIFTT
notes: W81S mutant of P282DR9P1359_F5; the entry holds the mutation
B24: CD8S395 (designed binder)
chain: LPAPKNLVVSRVTEDSARLSWTAPDAAFDSFAIAYPEHPPQGEAIVLTVPGSERSYDLTGLKPGTEYFVVIYGVKGGSYSAPLSAIFTT
notes: W38H mutant of P282DR9P1359_F7; the entry holds the mutation
B25: CD8S404 (designed binder)
chain: LPAPKNLVVSRVTEDSARLSWTAPDAAFDSFWITYAEWPDPGGEAIVLTVPGSERSYDLTGLKPGTEYFVVIYGVKGGEIYSPLSAIFTT
notes: P36A mutant of P282DR9P1359_C5; the entry holds the mutation
B26: CD8S400 (designed binder)
chain: LPAPKNLVVSRVTEDSARLSWTAPDAAFDSFWITYPELPDPGGEAIVLTVPGSERSYDLTGLKPGTEYFVVIYGVKGGEIYSPLSAIFTT
notes: W38L mutant of P282DR9P1359_C5; the entry holds the mutation
B27: CD8S401 (designed binder)
chain: LPAPKNLVVSRVTEDSARLSWTAPDAAFDSFWITYPEIPDPGGEAIVLTVPGSERSYDLTGLKPGTEYFVVIYGVKGGEIYSPLSAIFTT
notes: W38I mutant of P282DR9P1359_C5; the entry holds the mutation
B28: CD8S402 (designed binder)
chain: LPAPKNLVVSRVTEDSARLSWTAPDAAFDSFWITYPEWPPPGGEAIVLTVPGSERSYDLTGLKPGTEYFVVIYGVKGGEIYSPLSAIFTT
notes: D40P mutant of P282DR9P1359_C5; the entry holds the mutation
B29: CD8S367-DFO (designed binder)
chain: LPAPKNLVVSRVTEDSARLSWTAPDAAFDSFAIAYPEWPPQGEAIVLTVPGSCRSYDLTGLKPGTEYFVVIYGVKGGSYSAPLSAIFTT
modifications: deferoxamine (DFO) conjugated to the free cysteine introduced by E54C
notes: DFO conjugate of CD8S367
B30: CD8S368-DFO (designed binder)
chain: LPAPKNLVVSRVTEDSARLSWTAPDAAFDSFQIAYPEWPPPGEAIVLTVPGSCRSYDLTGLKPGTEYFVIIQGVKGGVESWPLSAIFTT
modifications: deferoxamine (DFO) conjugated to the free cysteine introduced by E54C
notes: DFO conjugate of CD8S368
B31: CD8S366-DFO (designed binder)
chain: LPAPKNLVVSRVTEDSARLSWTAPDAAFDSFWITYPEWPDPGGEAIVLTVPGSCRSYDLTGLKPGTEYFVVIYGVKGGEIYSPLSAIFTT
modifications: deferoxamine (DFO) conjugated to the free cysteine introduced by E54C
notes: DFO conjugate of CD8S366

The target in one assay is T1, human CD8A-Fc (recombinant human CD8 alpha fused to Fc fragment of human IgG1) (human, UniProt P01732 22-182, limits assumed).
T1 construct: SPR ligand, captured by goat anti-human Fc; also called hCD8A-Fc; recombinant CD8 alpha; not shown: linker with flag (and polyhistidine) tag and Fc fragment of human IgG1; depends on which of the two constructs was used
T1 sequence (P01732 22-182 limits assumed): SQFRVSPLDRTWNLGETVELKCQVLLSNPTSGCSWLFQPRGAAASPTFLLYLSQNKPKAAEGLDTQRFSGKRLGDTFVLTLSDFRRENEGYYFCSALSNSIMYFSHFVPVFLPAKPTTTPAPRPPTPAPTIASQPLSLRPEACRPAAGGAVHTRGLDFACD
Description: SPR, dissociation rate on recombinant CD8 alpha. (Surface plasmon resonance follows binding to a sensor surface in real time, without labels.)
For B1, the dissociation rate constant (koff) (commonly the first-order rate constant of dissociation) worked out at 0.000184 s⁻¹.

As for B2, the off-rate (koff) was 0.00114 s⁻¹. Same read-out and setting: the same measure for B3: 0.000152 s⁻¹; for B4: 0.00032 s⁻¹; for B5: 5.8e-05 s⁻¹.

As for B6, the off-rate constant (koff) is 4.97e-05 s⁻¹. The same measure, in the same setting: the same measure for B7: 0.0002 s⁻¹; for B8: 0.00121 s⁻¹; for B9: 0.247 s⁻¹.

B10: the off-rate (koff) amounted to 0.000125 s⁻¹. On the same count and under the same terms, to B11 belongs 0.000747 s⁻¹; to B12, 7.54e-05 s⁻¹; to B13, 0.000194 s⁻¹. Still for that read-out and setting: the same measure for B14: 0.000133 s⁻¹. As to B15, the koff was found to be 0.00155 s⁻¹.

On to B16, for which the koff is 0.000403 s⁻¹. Same read-out and setting: to B17 belongs 0.000571 s⁻¹; to B18, 0.00355 s⁻¹; to B19, 0.00083 s⁻¹. As to B20, the koff came out at 0.00255 s⁻¹.

On to B21, for which the dissociation rate constant (koff) was 0.00403 s⁻¹. Still for that read-out and setting: to B22 belongs 0.0004 s⁻¹. On the same count and under the same terms, the same measure for B23: 0.000846 s⁻¹; for B24: 0.00189 s⁻¹.

Consider B25, for which the off-rate (koff) was determined as 0.0309 s⁻¹. On the same count and under the same terms, the same measure for B26: 0.0226 s⁻¹; for B27: 0.0127 s⁻¹; for B28: 4.84e-05 s⁻¹.

In another assay the target is T1, human CD8A-Fc (recombinant human CD8 …). Description: SPR on recombinant human CD8 alpha after DFO conjugation, lower affinity population. How it is done:
(§1) Data analyses were performed using Bio-Rad ProteOn Manager software (version 3.1.0.6). Raw data were double referenced by subtraction of the interspot (empty chip surface, no protein immobilized or captured) signals to correct the non-specific binding of the FN3 domain to the pre-coated GAH-Fc IgG surface, followed by a double referencing using the buffer blank response (to correct for any baseline drift resulting from ligand dissociation over time). […] Given that the GAH-Fc capture of hCD8A-Fc format is the least disruptive relative to other formats in introducing potential experimental artifacts (such as ligand activity loss and/or artificial eptiopes/heterogeneous ligand population due to amine coupling), it is considered that the results from the GAH-Fc capture experiments reported here represent the most reliable ProteOn SPR data, despite the non-conforming 1:1 Langmuir fits observed in many instances. A heterogeneous ligand model was chosen to fit the data assuming two different ligand species, either due to the heterogeneity in the ligand protein population or due to potential different mechanisms for each FN3 domain binding to the 2 hCD8A monomers in the Fc fusion protein. In this case, because each anti-CD8A FN3 domain would have separate affinities, the resultant sensorgram reflects the sum of two independent reactions with two sets of rate constants, which were reported for each FN3 domain binding.
(§2) Following conjugation to DFO, the binding of each anti-CD8A FN3 domain to recombinant human CD8 alpha was assessed by surface plasmon resonance as previously described. All samples retained tight binding to human CD8A following mutation of E54 to Cys and conjugation to DFO (Table 8).
Regarding B29, the dissociation constant (Kd) (commonly the constant that tells how readily two partners part at equilibrium) worked out at 89.1 nM; the off-rate (koff) turned out to be 0.000975 s⁻¹; the kon – broadly, a measure of how fast the partners come together – was 10900 M⁻¹ s⁻¹. On the same counts, the results for B30 are 13.6 nM, 9.98e-05 s⁻¹ and 7320 M⁻¹ s⁻¹. For B31 the same measures were 18.2 nM, 0.000106 s⁻¹ and 5850 M⁻¹ s⁻¹.

A further assay shares this target. As to the kind of experiment: SPR on recombinant human CD8 alpha after DFO conjugation, higher affinity population. As to the method: as §1, §2
Regarding B29, the Kd was 1.55 nM, the off-rate (koff) is 0.000131 s⁻¹ and the kon worked out at 84500 M⁻¹ s⁻¹.

B30: the Kd is 0.23 nM, the koff is 2.53e-05 s⁻¹ and the on-rate constant (kon) worked out at 108000 M⁻¹ s⁻¹. For B31 the same measures were 0.9 nM, 7.01e-05 s⁻¹ and 79500 M⁻¹ s⁻¹.
